T1: ALC1 peptide (Homo sapiens, UniProt O94985)
T1 chain: KENEMDWDDSALTI


Biological target: T1, ALC1 peptide
Experiment: ITC

Row | Kd | Binder
1 | 44 µM | KLC1 TPR (protein) GGYEIPARLRTLHNLVIQYASQGRYEVAVPLCKQALEDLEKTSGHDHPDVATMLNILALVYRDQNKYKDAANLLNDALAIREKTLGKDHPAVAATLNNLAVLYGKRGKYKEAEPLCKRALEIREKVLGKDHPDVAKQLSNLALLCQNQGKYEEVEYYYQRALEIYQTKLGPDDPNVAKTKNNLASCYLKQGKFKQAETLYKEILTRAHEREFGSVDDENKPIWMHAEEREECKGKQKDGTSFGEYGGWYKACKVDSPTVTTTLKNLGALYRRQGKFEAAETLEEAAMRSRKQG
2 | 50 µM | KLC1 TPR (protein) GGYEIPARLRTLHNLVIQYASQGRYEVAVPLCKQALEDLEKTSGHDHPDVATMLNILALVYRDQNKYKDAANLLNDALAIREKTLGKDHPAVAATLNNLAVLYGKRGKYKEAEPLCKRALEIREKVLGKDHPDVAKQLNNLALLCQNQGKYEEVEYYYQRALEIYQTKLGPDDPNVAKTKNNLASCYLKQGKFKQAETLYKEILTRAHEREFGSVDDENKPIWMHAEEREECKGKQKDGTSFGEYGGWYKACKVDSPTVTTTLKNLGALYRRQGKFEAAETLEEAAMRSRKQG
